Here are results for 1 substance from article PMC10654033.

This assay deals with SpnA (S. pyogenes nuclease A), recombinant, residues Val25 to Leu876 (S. pyogenes) (UniProt Q9A0J7). The experiment in a line: SPR; Biacore T100; SpnA immobilized on a CM5 chip by amino coupling (7247 resonance units); IdeS injected at 10, 20, 40, 80 and 160 μM, 10 μl/min; 100 mM Hepes, 150 mM NaCl, 0.05% surfactant P20, pH 7.4; 1:1 Langmuir binding model. (In general: Surface plasmon resonance follows binding to a sensor surface in real time, without labels.)

Take “IdeS (immunoglobulin G-degrading enzyme of Streptococcus pyogenes) (from UniProt Q7DAM2 1-339)”: the Kd (usually the constant that tells how readily two partners part at equilibrium) is 53.3 µM.
